The text below walks through data of US20100272689A1, “Protease Having Algicidal Activity, Gene Encoding the Same and Algicidal Formulation Comprising the Same” (KOREA OCEAN RESEARCH & DEVELOPMENT INSTITUTE, priority 2007, published 2010).

Data set [1] concerns gelatin. Nature of the data set: Protease activity at various temperature and pH. The format is biochemical. Here is the method:
10476—7 protein (SEQ ID NO: 27) containing only mature protein was suspended with SDS in combination with stabilization by using EDTA and resistance to detergent, and refolded by dilution using buffer solution containing 50 mM Tris-HCl, 1 mM EDTA and 1% triton X-100 except SDS, and then protease activity was measured at various temperature and pH according to the method as described above [Park, H. I., J. Biol. Chem., 275:20540-20544, 2000]. The results are shown in FIG. 9 and FIG. 10, respectively.

The subject of data set [2] is gelatin. Briefly: Protease activity by electrophoresis on gelatin substrate gel. The format is biochemical. Particulars: refolded protein, FIG. 7. Here is the method: Protease activity of proteases obtained according to Example 6 was measured using electrophoresis on gelatin substrate gel [Park, H. I., J. Biol. Chem., 275:20540-20544, 2000].
Data set [3] relates to Cochlodinium polykrikoides. Briefly: Algicidal activity by cell count after 24 hr (Lugol staining). The data set is classed as cell-based. Particulars: 50 μl of protein (100 μg/ml), after 24 hr; for Cell number: ( ): standard deviation. The method, then: Organisms used as host for algicidal bacteria screen are Cochlodinium polykrikoides, Thalassiosira sp., Heterosigma akashiwo, Skeletonema costatum, Alexandrium sp., Gymnodium sp., Chaetoceros cuvisetus. Each algae cell was grown to log phase in F/2 broth (0.075 g NaNO3, 0.005 g NaH2PO4?H2O, 0.030 g Na2SiO3?9H2O, 1 ml F/2 trace metal solution, 1 ml F/2 vitamin solution and 1,000 ml aged seawater) [Stein, Handbook of phycological methods, Cambridge Univ. Press, 1973].
The cultured red tide organisms were diluted in F/2 broth to a final density of 0.05 (excitation wavelength=434 nm, emission wavelength=670 nm)on the fluorescent intensity using fluoro-spectrophotometer (Hitachi, Japan), and then 2.7 ml aliquots were dispensed into several test tubes (110 mm×10 mm) to prepare for the MPN (most probable number) method.
To measure algicidal activity of 10476—7 protein (SEQ ID NO:27), 50 μl of said protein (100 μg/ml) was added to the culture solutions of Cochlodinium polykrikoides, Thalassiosira sp., Heterosigma akashiwo, Skeletonema costatum, Alexandrium sp., Chaetoceros cuvisetus and Gymnodniium sp. which were prepared in Example 2. After 24 hr, said culture solutions were stained with 1% Lugol's iodine solution, and then the cell number was counted. Experimental groups with protease (experimental group 1 and 2) were compared with control group without protease in cell number and the degree of inhibition.
To check algicidal activity of proteins isolated Flavobacterium johnsoniae UW101 (ZP—01247095, SEQ ID NO: 4), Croceibacter atlanticus HTCC2559 (ZP—00951344, SEQ ID NO: 5), Leeuwenhoekiella blandensis MED217 (ZP—01059780, SEQ ID NO: 6) and Kordia algicida KAOT1—11562 (SEQ ID NO: 7), 50 μl of said protein (100 μg/ml) was added to the culture solutions of Cochlodinium polykrikoides, Thalassiosira sp., Heterosigma akashiwo, Skeletonema costatum, Alexandrium sp., Chaetoceros cuvisetus, and Gymnodium sp., which were prepared in Example 2. After 24 hr, said culture solutions were stained with 1% Lugol's iodine solution, and then the cell number was counted.
Experimental groups with protease (experimental group 1 and 2) were compared with control group without protease in cell number and the degree of inhibition.

The test system of data set [4] is gelatin. Nature of the data set: Protease activity with zinc or calcium ion (gelatin, TCA supernatant). The data set is classed as biochemical. Particulars: 0.1% gelatin, pH 8.0, 20° C., 2 hr. Here is the method:
Also, 5 μg of refolded protein was added to buffer solution containing 0.1% gelatin, 50 mM Tris-HCl (pH 8.0), 100 mM KCl and 1 mM zinc or calcium ion, incubated at 20° C. for 2 hr, and then 5% TCA solution (w/v) was added to the solution, followed by stand for 10 min on ice. After centrifugation for 5 min at 10,000 rpm, the protein was measured using the supernatant. Inhibition of protease activity by metal ions was measured by comparing with control group without metal ion.

How the values of data set [5] were obtained:
To observe protein processing of the protease having algicidal activity according to the present invention, analysis of protease activity was performed as the same method of Example 7 except 10476—8 protein (SEQ ID NO: 26) which was reacted at 4° C. for a week, and then that was confirmed by SDS-PAGE (FIG. 8).

“And” between values parts separate entries of the source, which are not always exact repeats. Identical values can stand only once.

B1: 10476—7: protein containing only mature protein, without signal peptide and processing peptide (protein, listed as Kordia algicida)
chain: QYRTNNLVSPGVITIIGYTGNNSNGLTTKMQTGLRWAVDNYNALNLSISFQLTFGTDYQNKDMVVYQVQGGAGGSAGFPSGGNPYKWVKINSGMAPYSNNVHEHVIGHEIGHSIGFRHSDYFSRQSCGQNSNEGSAGVGAIHIPGTPTGWDPTSLMNACFSSSEDGEFNGNDITALNFLY
modifications: KAOT1_10476 of Kordia algicida OT-1 lacking signal and processing peptide
With B1, the “Temperature of optimal protease activity” value with gelatin [1] (FIG. 9) was “about 20 °C”. Moreover, in the data set on gelatin [1] (FIG. 10), the “pH of optimal protease activity” value is given as 7-8. For the same molecule, the Protease activity result in the data set with gelatin [2] is “showed protease activity”. The “The degree of inhibition (%)” value in data set [3] (experimental group 1) turned out to be 40.7%; in data set [3] (experimental group 2), 30.0%. In addition, the Cell number in data set [3] (experimental group 1) was 960(30) cell/ml and 940(60) cell/ml; in data set [3] (experimental group 2) it was 1040(90) cell/ml and 900(110) cell/ml. The “Effect of zinc ion on protease activity” value in the data set with gelatin [4] (FIG. 11) is “inhibition of 10476—7 protein activity by zinc ion was confirmed”. Further, the “Calcium ion concentration of maximal protease activity” value with gelatin [4] (FIG. 12) lay in the range of 80 to 100 mM.

B2: 10476—8: protein containing processing peptide and mature protein, without the signal peptide part (protein, listed as Kordia algicida)
chain: VVDEEQDTAIGIPQDVLQKAQSLHFNTFDMQEASFEKPNGKIEEGYMMEGDIFFTRDQLMNMELGGDITSKQYRTNNLVSPGVITIIGYTGNNSNGLTTKMQTGLRWAVDNYNALNLSISFQLTFGTDYQNKDMVVYQVQGGAGGSAGFPSGGNPYKWVKINSGMAPYSNNVHEHVIGHEIGHSIGFRHSDYFSRQSCGQNSNEGSAGVGAIHIPGTPTGWDPTSLMNACFSSSEDGEFNGNDITALNFLY
modifications: KAOT1_10476 of Kordia algicida OT-1 lacking signal peptide
notes: protein containing processing peptide and mature protein, without the signal peptide part
In the case of B2, the “Time until turned into mature protease by degradation of processing peptide” value in data set [5] turned out to be 3 days. Moreover, in the data set on gelatin [2], the Protease activity result is recorded as “showed protease activity”.
